The values below come from patent US20160347802A1 (MAX PLANCK GESELLSCHAFT ZUR FOERDERUNG DER WISSENSCHAFTEN E …, published 2016).

Data set [1] addresses T1, human Netrin-4, AVEXIS protein (human, UniProt Q9HB63 19-628).
T1 construct: not shown: AVEXIS tag (bait or prey)
T1 sequence (looked up): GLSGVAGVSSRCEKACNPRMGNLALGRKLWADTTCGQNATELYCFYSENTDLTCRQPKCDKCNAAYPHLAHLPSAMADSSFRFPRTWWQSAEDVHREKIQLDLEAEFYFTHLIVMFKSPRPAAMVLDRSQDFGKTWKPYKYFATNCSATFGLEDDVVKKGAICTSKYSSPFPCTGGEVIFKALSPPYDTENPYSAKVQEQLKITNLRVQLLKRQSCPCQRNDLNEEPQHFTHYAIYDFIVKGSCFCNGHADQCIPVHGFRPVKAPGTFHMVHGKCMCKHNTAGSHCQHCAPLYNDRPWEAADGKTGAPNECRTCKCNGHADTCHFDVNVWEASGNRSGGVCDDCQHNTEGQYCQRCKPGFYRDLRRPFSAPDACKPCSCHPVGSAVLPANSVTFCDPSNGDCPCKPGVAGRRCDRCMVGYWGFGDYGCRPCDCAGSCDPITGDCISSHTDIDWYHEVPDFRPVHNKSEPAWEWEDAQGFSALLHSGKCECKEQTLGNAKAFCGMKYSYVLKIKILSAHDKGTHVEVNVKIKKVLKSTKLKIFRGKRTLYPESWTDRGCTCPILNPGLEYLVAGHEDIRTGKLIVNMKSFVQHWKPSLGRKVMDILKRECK
Briefly: AVEXIS, prey on bait NTN4; white = No binding. From the text:
(§1) The Matn4-bait served as an internal prey-protein control and was used for normalization of the A486 nm values; conditioned medium (CM) serves as negative control; n=3.

Data set [2] concerns the target T2, human Netrin-G1, AVEXIS protein (human, UniProt Q9Y2I2 29-510).
T2 construct: not shown: AVEXIS tag (bait or prey)
T2 sequence (looked up): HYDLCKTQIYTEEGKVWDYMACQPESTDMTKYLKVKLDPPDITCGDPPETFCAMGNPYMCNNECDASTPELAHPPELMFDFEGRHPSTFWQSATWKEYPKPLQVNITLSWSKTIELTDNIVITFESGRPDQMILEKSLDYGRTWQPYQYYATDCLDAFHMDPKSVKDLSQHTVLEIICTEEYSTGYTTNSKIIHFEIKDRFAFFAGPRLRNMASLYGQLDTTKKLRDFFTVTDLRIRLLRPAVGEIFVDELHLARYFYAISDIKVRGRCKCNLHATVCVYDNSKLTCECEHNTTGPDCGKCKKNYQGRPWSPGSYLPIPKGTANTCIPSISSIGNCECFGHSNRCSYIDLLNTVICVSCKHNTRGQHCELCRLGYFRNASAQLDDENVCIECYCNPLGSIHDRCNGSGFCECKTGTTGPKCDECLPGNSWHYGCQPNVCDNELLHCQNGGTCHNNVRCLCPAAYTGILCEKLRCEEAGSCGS
Briefly: AVEXIS, prey on bait NTNG1; white = No binding.
Description: as §1

In data set [3] the target is T3, biotinylated recombinant human UNC5B (human, UniProt Q8IZJ1 27-377).
T3 construct: Made in HEK293-6E and immobilised on an SA chip
The data set is described as follows: AVEXIS, prey on bait UNC5B; white = No binding.
Description: as §1

Data set [4] has as its target T4, Matn4 ECD, mono-biotinylated bait protein (positive control).
T4 construct: extracellular domain; also called Matn4-bait
The data set is described as follows: AVEXIS, prey on bait Matn4 (+), positive control for the prey; dark = Binding.
Description: as §1

Data set [5] deals with T5, human Netrin1, recombinant AVEXIS protein (biotinylated when immobilised) (human, UniProt O95631 25-604).
T5 construct: also called NTN1
The data set is described as follows: AVEXIS, prey on bait NTN1; white = No binding.
Description: as §1

The target in data set [6] is T6, human DRAXIN, AVEXIS prey or bait protein (human, UniProt Q8NBI3 26-349).
T6 sequence: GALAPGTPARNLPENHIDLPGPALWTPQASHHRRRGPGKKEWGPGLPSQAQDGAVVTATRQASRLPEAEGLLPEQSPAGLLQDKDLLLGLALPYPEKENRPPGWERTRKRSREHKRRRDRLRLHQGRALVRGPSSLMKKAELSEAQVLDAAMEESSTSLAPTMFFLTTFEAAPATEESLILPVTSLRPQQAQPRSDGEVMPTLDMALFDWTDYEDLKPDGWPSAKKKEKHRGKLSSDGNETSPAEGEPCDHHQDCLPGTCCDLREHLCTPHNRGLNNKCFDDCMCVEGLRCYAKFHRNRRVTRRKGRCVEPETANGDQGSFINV
The data set is described as follows: AVEXIS, prey on bait DRAXIN; white = No binding.
Description: as §1

Data set [7] concerns the target T7, human Netrin-3, AVEXIS protein (human, UniProt O00634 28-580).
T7 construct: not shown: AVEXIS tag (bait or prey)
Briefly: AVEXIS, prey NTN3 on bait NTNG2.
Description: as §1

Data set [8] deals with T8, human DRAXIN 21 amino acid Netrin binding fragment, AVEXIS prey or bait protein (human).
T8 construct: Tested in both bait and prey orientations; also called human 21 amino acid DRAXIN fragment; derived 21 amino acid peptide; not shown: AVEXIS tag (rat Cd4d3+4 and prey or bait module)
T8 peptide: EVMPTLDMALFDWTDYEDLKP
Briefly: AVEXIS, prey on bait DRAXIN 21aa; white = No binding.
Description: as §1

Data set [9] addresses T1, human Netrin-4, AVEXIS protein. Briefly: AVEXIS, prey NTN4 on bait NTNG2.
Description: as §1

Data set [10] concerns the molecule itself. The data set is described as follows: AVEXIS, prey on bait NTNG2; white = No binding.
Description: as §1

Data set [11] concerns the target T7, human Netrin-3, AVEXIS protein. The data set is described as follows: AVEXIS, prey on bait NTN3; white = No binding.
Description: as §1

Data set [12] deals with the molecule itself. The data set is described as follows: AVEXIS, prey NTNG2 on bait NTNG2.
Description: as §1

Data set [13] addresses T5, human Netrin1, recombinant AVEXIS …. Briefly: AVEXIS, prey NTN1 on bait NTNG2.
Description: as §1

For data set [14], the target named is T9, zebrafish DraxinB, AVEXIS protein (zebrafish).
T9 chain: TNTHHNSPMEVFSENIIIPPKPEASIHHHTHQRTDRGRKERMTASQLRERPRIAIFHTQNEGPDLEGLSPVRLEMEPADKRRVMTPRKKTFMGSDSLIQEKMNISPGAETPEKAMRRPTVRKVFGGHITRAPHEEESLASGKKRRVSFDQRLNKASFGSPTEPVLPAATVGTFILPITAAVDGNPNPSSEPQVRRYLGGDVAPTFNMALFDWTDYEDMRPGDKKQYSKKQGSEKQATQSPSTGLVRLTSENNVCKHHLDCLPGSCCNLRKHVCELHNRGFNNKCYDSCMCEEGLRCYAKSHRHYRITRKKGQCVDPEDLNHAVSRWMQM
Briefly: AVEXIS, prey on bait zDraxinB, lower value; white = No binding.

Data set [15] deals with the molecule itself. The data set is described as follows: AVEXIS, pentameric prey zebrafish DraxinA on bait zDraxinA.
Data set [16] deals with T9, zebrafish DraxinB, AVEXIS protein. Briefly: AVEXIS, pentameric prey zebrafish DraxinA on bait zDraxinB.
Data set [17] deals with the molecule itself. The data set is described as follows: AVEXIS, prey on bait zDraxinA, upper value; white = No binding.
Data set [18] concerns the molecule itself. Briefly: AVEXIS, prey on bait zDraxinA, lower value; white = No binding.
The target of data set [19] is T9, zebrafish DraxinB, AVEXIS protein. The data set is described as follows: AVEXIS, prey on bait zDraxinB, upper value; white = No binding.
Data set [20] addresses T6, human DRAXIN, AVEXIS prey or bait …. The data set is described as follows: AVEXIS, pentameric prey human DRAXIN on bait zDraxinA.

T7 sequence (O00634 28-580): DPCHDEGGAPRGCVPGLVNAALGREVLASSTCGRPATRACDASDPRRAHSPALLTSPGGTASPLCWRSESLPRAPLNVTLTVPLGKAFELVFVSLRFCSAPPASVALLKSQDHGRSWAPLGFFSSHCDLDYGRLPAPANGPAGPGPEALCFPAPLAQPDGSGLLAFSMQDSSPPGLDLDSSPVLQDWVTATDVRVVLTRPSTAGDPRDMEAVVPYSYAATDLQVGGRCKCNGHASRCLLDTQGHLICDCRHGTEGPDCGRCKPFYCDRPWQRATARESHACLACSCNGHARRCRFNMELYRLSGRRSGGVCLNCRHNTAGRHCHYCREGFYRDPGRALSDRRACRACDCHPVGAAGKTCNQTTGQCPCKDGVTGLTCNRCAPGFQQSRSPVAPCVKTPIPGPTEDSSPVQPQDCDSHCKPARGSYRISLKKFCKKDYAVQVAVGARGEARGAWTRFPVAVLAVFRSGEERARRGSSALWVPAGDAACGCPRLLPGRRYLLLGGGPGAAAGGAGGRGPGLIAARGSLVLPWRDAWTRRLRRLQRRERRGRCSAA

B1: human Netrin-G2, AVEXIS protein (ligand, UniProt Q96CW9 18-507, looked up)
chain: DYDICKSWVTTDEGPTWEFYACQPKVMRLKDYVKVKVEPSGITCGDPPERFCSHENPYLCSNECDASNPDLAHPPRLMFDKEEEGLATYWQSITWSRYPSPLEANITLSWNKTVELTDDVVMTFEYGRPTVMVLEKSLDNGRTWQPYQFYAEDCMEAFGMSARRARDMSSSSAHRVLCTEEYSRWAGSKKEKHVRFEVRDRFAIFAGPDLRNMDNLYTRLESAKGLKEFFTLTDLRMRLLRPALGGTYVQRENLYKYFYAISNIEVIGRCKCNLHANLCSMREGSLQCECEHNTTGPDCGKCKKNFRTRSWRAGSYLPLPHGSPNACATAGSFGNCECYGHSNRCSYIDFLNVVTCVSCKHNTRGQHCQHCRLGYYRNGSAELDDENVCIECNCNQIGSVHDRCNETGFCECREGAAGPKCDDCLPTHYWRQGCYPNVCDDDQLLCQNGGTCLQNQRCACPRGYTGVRCEQPRCDPADDDGGLDCDRAPG
notes: not shown: AVEXIS tag (bait or prey)
For the molecule B1, the A486nm in data set [1] stood at 0.063; in [2], 0.061; in [3], 0.061; in data set [4] it was 0.201; in data set [5] it was 0.06; in [6] it was 0.06. Further, the A486nm in data set [8] was found to be 0.063; in data set [10], 0.062; in [11] it was 0.062. The binding result in data set [7], in [9], in data set [12] and in data set [13] was “no binding” each time.

B2: zebrafish DraxinA, AVEXIS prey or bait protein (ligand)
chain: SEISSDNFKQSLTPSTTTSKEHPETGLTGGRQQKRHWSGKERDSAGLFSQRHMDRLEDDGTSMEGLSPVRLEMGPGDTMKAEVHGEVRASAQMRQGSHPAEGELNRKGRRHSHRLLAEHRKHGGKKDKGRGKGDLSDPEPELDSLLKDLNAFEDGLNTSPPNYNSVPLNEVPSPLSPILVTTAIKGHPPTLPPASTKPQKSSQGRTQGEVMPTLDMTLFDWTDYEDMKPADSWPSNKRKDKRRSKNKSNGNTTTEAGIVEPCDHHLDCLSGSCCDLREFECKPHNRGLNNKCFDDCMCEEGLRCYAKFHRKRRVTRRRGRCVDPESVNSNQGAFITV
notes: Prey and bait forms of the same protein are kept as one molecule; Preys are pentameric except in the monomeric-prey experiments; also called DraxinA prey protein
Regarding B2, the A486nm in data set [14] worked out at 0.059; in [17], 0.062; in data set [18], 0.06; in [19] it was 0.057. Further, the binding result in data set [15], in data set [16] and in [20] was “no binding” each time.
